The record followed here is PMC5225433.

In this experiment the target is EMILIN1 gC1q domain, wild type (recombinant). As to the kind of experiment: SDS-PAGE without boiling; purified gC1q (WT or mutant), incubated or not with NE at 37 °C, Laemmli buffer added, loaded on 4-20% gels without boiling to keep the trimer, Coomassie staining; trimer to monomers.

Turning to “EMILIN1 gC1q domain, wild type (recombinant) (domain or fragment)”, the stoichiometry N stood at 3.

The term stoichiometry N denotes a count of units in the complex or per binding partner.
